Test results as given in the supplement of paper PMC9732359.
± gives the uncertainty stated by the source.

Experiment: protein stability index of a GFP-peptide fusion (yeast GPS) (PSI 1-4); higher = more stable; sorted into four equal gates, so the index is relative within each strain
Method in brief: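 The protein stability index of a peptide was calculated by multiplying its read frequency in each gate by that gate's number and adding the products. The peptides were tiled 17-residue stretches of yeast proteins, fused downstream of GFP on a Cherry-expressing plasmid and carried in yeast as a pooled library. Mid-log cultures in leucine-free medium were sorted into four equal gates by GFP/Cherry ratio, and each gate's plasmids were PCR-amplified and Illumina-sequenced.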

| Sequence | protein stability index (doa10∆) | protein stability index (pdr5∆) | protein stability index (san1∆) | protein stability index (ubr1∆) |
| --- | --- | --- | --- | --- |
| SSDGALCMDSSYIGTII [POP1] | 3.09 ± 0.09 | 2.71 ± 0.083 | 3.04 ± 0.12 | 3.23 ± 0.14 |
| RRREQTTYSVDDYYKEI [ISW2] | 2 ± 0.044 | 2.55 ± 0.035 | 1.91 ± 0.071 | 2.87 ± 0.044 |
| EVLCSRIIEKSVRRSGA [RRP45] | 2.38 ± 0.066 | 3.21 ± 0.076 | 2.41 ± 0.1 | 2.94 ± 0.1 |
| RMAKLCARFLGNRGFSI [RPO31] | 2.35 ± 0.2 | – | – | 2.93 ± 0.2 |
| VLEKYEVIGYIAAGTYG [SSN3] | 1.34 ± 0.088 | 1.55 ± 0.14 | – | 1.28 ± 0.075 |
| HFIQKLHTARKILVLTG [SIR2] | 1.74 ± 0.14 | 2.36 ± 0.16 | 1.1 ± 0.15 | 1.66 ± 0.21 |
| YSRITLIIDDPSKGQSL [RPP1] | 2.09 ± 0.056 | 2.44 ± 0.063 | 2.42 ± 0.048 | 2.78 ± 0.053 |
| MMVNNQTMQLIKNVQDL [SRB6] | 2.84 ± 0.25 | 2.3 ± 0.16 | 1.64 ± 0.13 | 3.03 ± 0.17 |
| EEKEKEQSKEVGDVVGG [BRN1] | 3.29 ± 0.091 | 3.52 ± 0.1 | 3.29 ± 0.067 | 3.34 ± 0.075 |
| KRRIEEEQEKINSAPDF [ISW2] | 3.4 ± 0.2 | 3.58 ± 0.22 | 2.98 ± 0.15 | 3.57 ± 0.099 |
| MSVDIDKKASMIISGSR [ASC1] | 2 ± 0.24 | 1.95 ± 0.12 | 1.71 ± 0.23 | 1.99 ± 0.074 |
| VKKVIEINPFLLGTMAG [PRE2] | 1.37 ± 0.14 | 1.86 ± 0.18 | 1.38 ± 0.28 | – |
| LKVQKLSRPSLPKIKTV [RPL35A] | 2.41 ± 0.062 | 3.11 ± 0.072 | 3.17 ± 0.057 | 3.17 ± 0.059 |
| EIKKVTQIVAKFPETSY [SIN4] | 2.25 ± 0.27 | 3.02 ± 0.11 | – | 2.57 ± 0.27 |
| EKIMENKYPELLGKDNE [AAR2] | 3.04 ± 0.073 | 3.24 ± 0.062 | 3.24 ± 0.039 | 2.96 ± 0.045 |
| CHSKLRGQQVENPTDNF [GRR1] | 2.86 ± 0.22 | – | – | – |
| LKYPELSIKNSFIINFI [NUT1] | 1.99 ± 0.062 | 2 ± 0.045 | 2.13 ± 0.076 | 1.94 ± 0.036 |
| VVVVLEEPSASIMVELK [SIR3] | 2.95 ± 0.083 | 2.99 ± 0.16 | 3.28 ± 0.065 | 2.86 ± 0.2 |
| VRSLPKEEQPKQIIVTR [PRP8] | 2.38 ± 0.1 | 2.09 ± 0.25 | 2.21 ± 0.12 | 1.98 ± 0.072 |
| ITQDGKFAYKIDKITDG [YMR129W/POM152] | 2.9 ± 0.087 | 3.03 ± 0.073 | 2.81 ± 0.063 | 2.85 ± 0.051 |
| DPNEVEIKKLLATNSLV [DIS3] | 2.19 ± 0.049 | 1.82 ± 0.048 | 2.35 ± 0.057 | 2.29 ± 0.046 |
| KMVKAWNLNQFQIEADF [ASC1] | 2.58 ± 0.046 | 2.67 ± 0.053 | 2.58 ± 0.067 | 2.55 ± 0.04 |
| IVQFTYGGDGLDPLEME [RPO31] | – | 3.09 ± 0.2 | 2.55 ± 0.27 | – |
| WESLAKKQNLSSHQRVF [SWP82] | 2.77 ± 0.063 | 2.71 ± 0.071 | 2.83 ± 0.06 | 2.91 ± 0.053 |
| GLYKMMEERDGAKFENI [AAR2] | 1.49 ± 0.19 | 1.87 ± 0.12 | 1.68 ± 0.2 | 1.74 ± 0.056 |
| KGHKFNNTKAGRRKTWK [RPL15A] | 2.79 ± 0.063 | 2.93 ± 0.081 | 2.8 ± 0.093 | 3.1 ± 0.1 |
| SQESINQKLALVIKSGK [RPL30] | 2.32 ± 0.097 | 2.65 ± 0.13 | 2.31 ± 0.11 | 2.4 ± 0.058 |
| GQGEQVDDVLETISAIE [RPN1] | 3.4 ± 0.27 | 3.05 ± 0.18 | 2.69 ± 0.19 | 2.91 ± 0.19 |
